From patent publication US20250084188A1 (published 2025)

Molecular target: human chitinase-3-like protein 1 (hCHI3L1) (human, UniProt P36222 22-383)
Assay: ELISA

Chain of human chitinase-3-like protein 1 (hCHI3L1) (P36222 22-383): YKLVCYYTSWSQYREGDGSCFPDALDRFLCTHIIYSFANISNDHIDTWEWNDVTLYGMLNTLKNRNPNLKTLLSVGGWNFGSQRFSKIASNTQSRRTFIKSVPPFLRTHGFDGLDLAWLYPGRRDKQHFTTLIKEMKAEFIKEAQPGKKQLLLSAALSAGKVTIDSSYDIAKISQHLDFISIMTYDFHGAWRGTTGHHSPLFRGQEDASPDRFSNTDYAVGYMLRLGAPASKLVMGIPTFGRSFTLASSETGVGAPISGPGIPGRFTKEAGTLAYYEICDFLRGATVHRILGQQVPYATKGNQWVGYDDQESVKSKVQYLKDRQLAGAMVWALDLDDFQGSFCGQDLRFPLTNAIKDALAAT

EC50 [pM] | Binder
2050 | A7 (IgG) (antibody, V domains shown) VH: EVQLVESGGGLVQPGGSLRLSCAASGFTFSDYAMSWVRQAPGKGLEWVSGISSSGGTIYYADSVKGRFTISRDNSKNTLYLQMNSLRAEDTAVYYCAKAIGSWADIWGQGTLVTVSS VL: DIQMTQSPSSLSASVGDRVTITCRASQDISNYLNWYQQKPGKAPKLLIYAASSLQSGVPSRFSGSGSGTDFTLTISSLQPEDFATYYCQQSYSFPYTFGQGTKVEIK
348 | E7 (IgG) (antibody, V domains shown) VH: EVQLVESGGGLVQPGGSLRLSCAASGFTFSSYAMHWVRQAPGKGLEWVSAISSSGGSIYYADSVKGRFTISRDNSKNTLYLQMNSLRAEDTAVYYCAKQGLSFDIWGQGTLVTVSS VL: DIQMTQSPSSLSASVGDRVTITCRASQSISNWLNWYQQKPGKAPKLLIYATSRLQSGVPSRFSGSGSGTDFTLTISSLQPEDFATYYCQQSYSFPYTFGQGTKVEIK
1380 | H7 (IgG) (antibody, V domains shown) VH: EVQLVESGGGLVQPGGSLRLSCAASGFTFSSYGMHWVRQAPGKGLEWVSGISSSGGSKYYADSVKGRFTISRDNSKNTLYLQMNSLRAEDTAVYYCAKHGHQQMDFWGQGTLVTVSS VL: DIQMTQSPSSLSASVGDRVTITCRASQSISSWLNWYQQKPGKAPKLLIYAASRLQSGVPSRFSGSGSGTDFTLTISSLQPEDFATYYCQQTYSFPWTFGQGTKVEIK
972 | A5 (IgG) (antibody, V domains shown) VH: not shown VL: DIQMTQSPSSLSASVGDRVTITCRASQSISRWLNWYQQKPGKAPKLLIYATSTLQSGVPSRFSGSGSGTDFTLTISSLQPEDFATYYCQQSYSFPWTFGQGTKVEIK

The remaining lines, values behind:

Binder | EC50 [pM]
D2 (IgG) (antibody, V domains shown) VH: EVQLVESGGGLVQPGGSLRLSCAASGFTFSSYAMHWVRQAPGKGLEWVSAISSSSGTIYYADSVKGRFTISRDNSKNTLYLQMNSLRAEDTAVYYCAKDFGAVFDYWGQGTLVTVSS VL: not shown | 577
H1 (IgG) (antibody, V domains shown) VH: EVQLVESGGGLVQPGGSLRLSCAASGFTFSSYAMSWVRQAPGKGLEWVSAIRSSGGTTYYADSVKGRFTISRDNSKNTLYLQMNSLRAEDTAVYYCAKSQSTVADYWGQGTLVTVSS VL: DIQMTQSPSSLSASVGDRVTITCRASQSISNWLNWYQQKPGKAPKLLIYATSRLQSGVPSRFSGSGSGTDFTLTISSLQPEDFATYYCQQSYSFPLTFGQGTKVEIK | 496
1E12 (IgG) (antibody, V domains shown) VH: EVQLVESGGGLVQPGGSLRLSCAASGFTFSSYAMHWVRQAPGKGLEWVSAISSSGGTKYYADSVKGRFTISRDNSKNTLYLQMNSLRAEDTAVYYCAKGLQGGAGAFDIWGQGTLVTVSS VL: DIQMTQSPSSLSASVGDRVTITCRASQSISNYLNWYQQKPGKAPKLLIYATSTLHSGVPSRFSGSGSGTDFTLTISSLQPEDFATYYCQQSYSFPWTFGQGTKVEIK | 139
C5 (IgG) (antibody, V domains shown) VH: EVQLVESGGGLVQPGGSLRLSCAASGFTFSSYAMSWVRQAPGKGLEWVSSISSSSGTTHYADSVKGRFTISRDNSKNTLYLQMNSLRAEDTAVYYCAKGGAFDYWGQGTLVTVSS VL: DIQMTQSPSSLSASVGDRVTITCRASQDISRWLNWYQQKPGKAPKLLIYAASTLQSGVPSRFSGSGSGTDFTLTISSLQPEDFATYYCQQSYSFPLTFGQGTKVEIK | 93
F4 (IgG) (antibody, V domains shown) VH: not shown VL: DIQMTQSPSSLSASVGDRVTITCRASQSISRWLNWYQQKPGKAPKLLIYAASRLQSGVPSRFSGSGSGTDFTLTISSLQPEDFATYYCQQSYSTPWTFGQGTKVEIK | 111
F2 (IgG) (antibody, V domains shown) VH: EVQLVESGGGLAQPGGSLRLSCAASGFTFSSYAMHWVRQAPGKGLEWVSSIKSSGGSKNYADSVKGRFTISRDNSKNTLYLQMNSLRAEDTAVYYCAKGYGASFDFWGQGTLVTVSS VL: DIQMTQSPSSLSASVGDRVTITCRASQDISSWLNWYQQKPGKAPKLLIYAASRLQSGVPSRFSGSGSGTDFTLTISSLQPEDFATYYCQQAYSFPWTFGQGTKVEIK | 1750
